Reference: the supplement of paper PMC10724198
± gives the standard deviation of the averaged measurements.

Columns and labels:
[1] = system: Saccharomyces cerevisiae; assay: protein stability index of tFT-peptide fusion (C-terminal peptide) (PSI (0-1 scale)); higher = more stable (slower turnover); details: genetic background: wild type; temperature: 30 C
[2] = system: Saccharomyces cerevisiae; assay: as above
Protocol: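 MPS profiling in S. cerevisiae of the tFT-X12 degron library: putative degron peptides plus stable controls, 12 aa, fused to the C-terminus of a sfGFP-mCherry timer. Cells are FACS-sorted into 8 mCherry/sfGFP bins and deep-sequenced. PSI runs from 0 (unstable) to 1 (stable). Backgrounds are wild type, das1Δ and doa10Δ at 30 °C, and wild type, das1Δ, cdc34-1 and cdc53-1 at 37 °C; 2-3 technical replicates each.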

[3] = genetic background: cdc34-1, temperature: 37 C
[4] = genetic background: cdc53-1, temperature: 37 C
[5] = genetic background: das1 deletion, temperature: 30 C
[6] = genetic background: das1 deletion, temperature: 37 C
[7] = genetic background: doa10 deletion, temperature: 30 C
[8] = genetic background: wild type, temperature: 30 C
[9] = genetic background: wild type, temperature: 37 C
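Further: PSI is a weighted mean of sequencing reads over stability bins, variants kept only with over 10 reads, mCherry proximal and sfGFP distal, peptide attached via GGGS linker.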

| Sequence | protein stability index [1] | protein stability index [2, 3] | protein stability index [2, 4] | protein stability index [2, 5] | protein stability index [2, 6] | protein stability index [2, 7] | protein stability index [2, 8] | protein stability index [2, 9] |
| --- | --- | --- | --- | --- | --- | --- | --- | --- |
| VVATLRCLRCSV | 0.405 ± 0.021 | 0.474 ± 0.014 | 0.501 ± 0.052 | 0.346 ± 0.035 | 0.5244 ± 0.0026 | 0.236 ± 0.014 | 0.273 ± 0.043 | 0.441 ± 0.013 |
| VVCFVVCGFYLG | 0.205 ± 0.055 | 0.235 ± 0.018 | 0.316 ± 0.021 | 0.261 ± 0.025 | 0.452 ± 0.011 | 0.224 ± 0.011 | 0.242 ± 0.051 | 0.428 ± 0.024 |
| VVCLLGIFYGFC | 0.446 ± 0.07 | 0.382 ± 0.023 | 0.497 ± 0.045 | 0.313 ± 0.031 | 0.5138 ± 0.00014 | 0.293 ± 0.021 | 0.307 ± 0.031 | 0.51 ± 0.014 |
| VVLCQVCVLWGW | 0.257 ± 0.016 | 0.0623 ± 0.011 | 0.202 ± 0.029 | 0.167 ± 0.031 | 0.252 ± 0.01 | 0.148 ± 0.0088 | 0.151 ± 0.029 | 0.229 ± 0.025 |
| VVLVLLCIGRLL | 0.376 ± 0.0063 | 0.367 ± 0.012 | 0.511 ± 0.026 | 0.305 ± 0.033 | 0.5545 ± 0.0033 | 0.27 ± 0.0062 | 0.3 ± 0.026 | 0.475 ± 0.011 |
| VVWIQRTVLSLI | 0.27 ± 0.049 | 0.565 ± 0.038 | 0.603 ± 0.015 | 0.505 ± 0.03 | 0.6 ± 0.011 | 0.151 ± 0.0065 | 0.184 ± 0.027 | 0.327 ± 0.0052 |
| VWFFGVVLGGLW | 0.4443 ± 0.0021 | 0.527 ± 0.071 | 0.554 ± 0.0091 | 0.423 ± 0.031 | 0.584 ± 0.014 | 0.4157 ± 0.00077 | 0.421 ± 0.018 | 0.561 ± 0.03 |
| VWRLCFPFALVR | 0.194 ± 0.02 | 0.0577 ± 0.022 | 0.0537 ± 0.012 | 0.155 ± 0.025 | 0.18 ± 0.023 | 0.225 ± 0.0026 | 0.132 ± 0.025 | 0.1406 ± 0.00093 |
| VWVISLCIGGVG | 0.314 ± 0.025 | 0.298 ± 0.0059 | 0.366 ± 0.0041 | 0.241 ± 0.026 | 0.399 ± 0.011 | 0.205 ± 0.011 | 0.225 ± 0.021 | 0.3811 ± 0.002 |
| VYFRMGFMRVCV | 0.4611 ± 0.0042 | 0.487 ± 0.05 | 0.5 ± 0.037 | 0.416 ± 0.032 | 0.554 ± 0.0079 | 0.32 ± 0.013 | 0.344 ± 0.027 | 0.493 ± 0.015 |
| VYFRYWLLVVVF | 0.129 ± 0.019 | 0.0945 ± 0.029 | 0.106 ± 0.022 | 0.148 ± 0.034 | 0.215 ± 0.0027 | 0.117 ± 0.029 | 0.101 ± 0.026 | 0.15 ± 0.0062 |
| VYRILFWFLCFG | 0.4679 ± 0.0011 | 0.489 ± 0.023 | 0.406 ± 0.072 | 0.422 ± 0.026 | 0.564 ± 0.043 | 0.4545 ± 0.0021 | 0.412 ± 0.01 | 0.529 ± 0.045 |
| WDPEVVHRLWLN | 0.237 ± 0.019 | 0.587 ± 0.037 | 0.772 ± 0.029 | 0.662 ± 0.034 | 0.766 ± 0.013 | 0.125 ± 0.0063 | 0.14 ± 0.0092 | 0.155 ± 0.019 |
| WFCCAQRGVIVG | 0.405 ± 0.012 | 0.446 ± 0.018 | 0.452 ± 0.028 | 0.336 ± 0.024 | 0.502 ± 0.0087 | 0.311 ± 0.011 | 0.336 ± 0.026 | 0.478 ± 0.0083 |
